How the values were obtained:
[1] = test system: mel1300 cells; test: IFN-γ release, SSX-2 TCR PBL co-cultured with mel1300 cells with DAC; assay type: cell-based; details: 0.1 μM or 1.0 μWI DAC; PBLs from three donors; FIG. 12
Protocol: SSX-2 TCR-transduced PBLs from three donors were co-cultured with mel1300 cells without DAC or with 0.1 μM or 1.0 μWI DAC.

[2] = test system: 293-A2 SSX2; test: IFN-γ release, co-culture with 293-A2 SSX2; assay type: cell-based; details: co-cultured with 293-A2-SSX2
Text: (§1) SSX-2 TCR-transduced PBLs were co-cultured with various tumor cell lines. […] FIGS. 4A and 4B, FIG. 11, and Tables 3 and 4 show additional results of PBLs from human donors that were transduced with the SSX-2 TCR of Example 2 when these PBLs were co-cultured with various tumor cells. PBLs that were untransduced (UT) or transduced with a vector comprising SEQ ID NO: 27 (SSX-2 TCR), SEQ ID NO: 29 (codon-optimized SSX-2 TCR), or SEQ ID NO: 30 (codon-optimized SSX-2 TCR including mouse constant region) were co-cultured with various tumor cell lines. Tables 5 and 6 show the resulting interferon-γ levels (pg/ml) measured with respect to PBL from two different donors.

[3] = test system: 938 mel; test: IFN-γ release, co-culture with 938; assay type: cell-based; details: co-cultured with 938 mel
Text: as §1

[4] = test system: 293-A2; test: IFN-γ release, co-culture with 293-A2; assay type: cell-based; details: co-cultured with 293-A2
Text: as §1

[5] = test system: SSX2+/HLA-A2+ target cells; test: Proliferation ([3H]-thymidine) on co-culture with tumor cells; assay type: cell-based; details: 1300 mel, 624 mel, 888 mel, SK mel 37 or COS-A2-SSX-2 cells; FIGS. 9A-9E
Text: In another experiment, PBLs transduced as described in this example were co-cultured with 1300 mel cells, 624 mel cells, 888 mel cells, SK mel 37 cells, or COS-A2-SSX-2 cells.

[6] = test system: COS-A2; test: IFN-γ release, TCR-transduced PBL co-cultured with COS-A2; assay type: cell-based; details: co-cultured with Cos-A2
Text: as §1

[7] = test system: COS-A2-SSX2 cells; test: CD137 (4-1BB) upregulation after co-culture with COS-A2-SSX2 cells; assay type: cell-based; details: FACS after co-culture with COS-A2-SSX2 cells
[8] = test system: COS-A2-SSX-2 cells; test: Proliferation ([3H]-thymidine) on co-culture with COS-A2-SSX-2 cells; assay type: cell-based; details: PBL from Donor 1 or Donor 2; FIGS. 6A, 6B
Protocol: PBLs from Donor 1 or Donor 2 that were untransduced (UT) or transduced with a vector comprising SEQ ID NO: 27 (SSX-2 TCR), SEQ ID NO: 29 (codon-optimized SSX-2 TCR), or SEQ ID NO: 30 (codon-optimized SSX-2 TCR including mouse constant region) were co-cultured with COS-A2-SSX-2 cells. Proliferation in terms of [^3H]-thymidine incorporation (CPM) was measured and is shown in FIG. 6A (Donor 1) and 6B (Donor 2).

[9] = IFN-γ release, transduced PBL without target cells (medium / T cell alone); assay type: cell-based, human; details: T cell alone
Text: as §1

[10] = test system: K562; test: IFN-γ release, co-culture with K562; assay type: cell-based; details: co-cultured with K562
Text: (§2) PBLs that were untransduced (UT) or transduced with a vector comprising SEQ ID NO: 27 (SSX-2 TCR), SEQ ID NO: 29 (codon-optimized SSX-2 TCR), or SEQ ID NO: 30 (codon-optimized SSX-2 TCR including mouse constant region) were co-cultured with various tumor cell lines. Tables 5 and 6 show the resulting interferon-γ levels (pg/ml) measured with respect to PBL from two different donors.

[11] = test system: Lau 149 mel; test: IFN-γ release, co-culture with Lau 149 mel; assay type: cell-based; details: co-cultured with Lau 149 mel
Text: as §2

[12] = test system: SK MEL37; test: IFN-γ release, co-culture with SK MEL37 melanoma; assay type: cell-based
Text: as §1

[13] = test system: 1300 mel; test: IFN-γ release, co-culture with 1300 mel; assay type: cell-based; details: co-cultured with 1300 mel
Text: as §2

[14] = test system: 624 mel; test: IFN-γ release, co-culture with 624 melanoma; assay type: cell-based; details: co-cultured with 624 mel
Text: as §1

[15] = test system: 938-A2 mel; test: IFN-γ release, co-culture with 938-A2 melanoma; assay type: cell-based; details: co-cultured with 938-A2 mel
Text: as §1

[16] = test system: K562-A2-Erythroleukemia; test: IFN-γ release, co-culture with K562-A2 erythroleukemia; assay type: cell-based; details: co-cultured with K562-A2-Erythroleukemia
Text: as §2

[17] = test system: SKOV3 Ovarian; test: IFN-γ release, co-culture with SKOV3 ovarian; assay type: cell-based; details: co-cultured with SKOV3 Ovarian
Text: as §1

[18] = test system: T331A mel; test: IFN-γ release, co-culture with T331A; assay type: cell-based; details: co-cultured with T331A mel
Text: as §1

[19] = test system: COS-A2 SSX2; test: IFN-γ release, co-culture with COS-A2 SSX2; assay type: cell-based; details: co-cultured with COS-A2-SSX2
Text: as §1

[20] = test system: U251 Glioma; test: IFN-γ release, co-culture with U251 glioma; assay type: cell-based; details: co-cultured with U251 Glioma
Text: as §1

[21] = test system: SSX-2+/HLA-A2+ target cells; test: Percent lysis of target cells; assay type: cell-based; details: FIGS. 7A-D and 8A-D, various E:T ratios
[22] = Table 5 donor, co-cultured with Skmel 37 mel
[23] = Table 6 donor, co-cultured with Skmel 37

| Molecule | interferon-γ levels ([2]; Table 5 donor) [pg/mL] | interferon-γ levels ([2]; Table 6 donor) [pg/mL] | interferon-γ levels ([3]; Table 5 donor) [pg/mL] | interferon-γ levels ([3]; Table 6 donor) [pg/mL] | interferon-γ levels ([4]; Table 5 donor) [pg/mL] | interferon-γ levels ([4]; Table 6 donor) [pg/mL] | proliferation ([3H]-thymidine incorporation) [5] | interferon-γ levels ([6]; Table 5 donor) [pg/mL] | interferon-γ levels ([6]; Table 6 donor) [pg/mL] | activation marker CD137 (4-1BB) [7] | proliferation ([3H]-thymidine incorporation) [8] | interferon-γ levels ([9]; Table 5 donor) [pg/mL] | interferon-γ levels ([9]; Table 6 donor) [pg/mL] | interferon-γ levels ([10]; Table 5 donor) [pg/mL] | interferon-γ levels ([10]; Table 6 donor) [pg/mL] | interferon-γ levels ([11]; Table 5 donor) [pg/mL] | interferon-γ levels ([11]; Table 6 donor) [pg/mL] | interferon-γ levels [12, 22] [pg/mL] | interferon-γ levels [12, 23] [pg/mL] | interferon-γ levels ([13]; Table 5 donor) [pg/mL] | also measured |
| --- | --- | --- | --- | --- | --- | --- | --- | --- | --- | --- | --- | --- | --- | --- | --- | --- | --- | --- | --- | --- | --- |
| Nc1ncn([C@H]2C[C@H](O)[C@@H](CO)O2)c(=O)n1 [DAC, 5-aza-2′-deoxycytidine] | – | – | – | – | – | – | – | – | – | – | – | – | – | – | – | – | – | – | – | – | effect on recognition of mel1300 cells (IFN-γ) [1]: enhances the recognition of mel1300 cells by SSX2-TCR engineered PBL |
| SSX2-TCR-Co Op: codon-optimized anti-SSX-2 TCR alpha and beta chains encoded by SEQ ID NO: 29, tested as transduced human PBLs (protein) MALSSLLKVVTASLWLGPGIAQKITQTQPGMFVQEKEAVTLDCTYDTSDPSYGLFWYKQPSSGEMIFLIYQGSYDQQNATEGRYSLNFQKARKSANLVISASQLGDSAMYFCAMTSGFGNEKLTFGTGTRLTIIPNIQNPDPAVYQLRDSKSSDKSVCLFTDFDSQTNVSQSKDSDVYITDKTVLDMRSMDFKSNSAVAWSNKSDFACANAFNNSIIPEDTFFPSPESSCDVKLVEKSFETDTNLNFQNLSVIGFRILLLKVAGFNLLMTLRLWSSRAKRSGSGATNFSLLKQAGDVEENPGPMGPGLLHWMALCLLGTGHGDAMVIQNPRYQVTQFGKPVTLSCSQTLNHNVMYWYQQKSSQAPKLLFHYYDKDFNNEADTPDNFQSRRPNTSFCFLDIRSPGLGDAAMYLCATSRGQGGQPQHFGDGTRLSILEDLNKVFPPEVAVFEPSEAEISHTQKATLVCLATGFFPDHVELSWWVNGKEVHSGVSTDPQPLKEQPALNDSRYCLSSRLRVSATFWQNPRNHFRCQVQFYGLSENDEWTQDRAKPVTQIVSAEAWGRADCGFTSVSYQQGVLSATILYEILLGKATLYAVLVSALVLMAMVKRKDF | 37522 | 49112 | 890 | 768 | 711 | 1067 | proliferate in response to co-culture with SSX2+/HLA-A2+ target cells | 2338 | 601 | upregulated | proliferate in response to co-culture with COS-A2-SSX-2 cells | 164 | 290 | 1714 | 2784 | 193 | 120 | 8869 | 11445 | 2596 | interferon-γ levels ([13]; Table 6 donor): 3052 pg/mL; interferon-γ levels ([14]; Table 5 donor): 37547 pg/mL; interferon-γ levels ([14]; Table 6 donor): 47059 pg/mL; interferon-γ levels ([15]; Table 5 donor): 46304 pg/mL; interferon-γ levels ([15]; Table 6 donor): 51173 pg/mL; interferon-γ levels ([16]; Table 5 donor): 21325 pg/mL; interferon-γ levels ([16]; Table 6 donor): 13610 pg/mL; interferon-γ levels ([17]; Table 5 donor): 2527 pg/mL; interferon-γ levels ([17]; Table 6 donor): 22509 pg/mL; interferon-γ levels ([18]; Table 5 donor): 30 pg/mL; interferon-γ levels ([18]; Table 6 donor): 30 pg/mL; interferon-γ levels ([19]; Table 5 donor): 64142 pg/mL; interferon-γ levels ([19]; Table 6 donor): 138324 pg/mL; interferon-γ levels ([20]; Table 5 donor): 19223 pg/mL; interferon-γ levels ([20]; Table 6 donor): 21418 pg/mL; lytic activity (percent lysis) [21]: specific lytic activity against SSX-2^+/HLA-A2^+ target cells |
| SSX2-TCR-MCR: codon-optimized human/mouse chimeric anti-SSX-2 TCR with mouse constant region, encoded by SEQ ID NO: 30, tested as transduced human PBLs (protein) MALSSLLKVVTASLWLGPGIAQKITQTQPGMFVQEKEAVTLDCTYDTSDPSYGLFWYKQPSSGEMIFLIYQGSYDQQNATEGRYSLNFQKARKSANLVISASQLGDSAMYFCAMTSGFGNEKLTFGTGTRLTIIPNDIQNPEPAVYQLKDPRSQDSTLCLFTDFDSQINVPKTMESGTFITDKTVLDMKAMDSKSNGAIAWSNQTSFTCQDIFKETNATYPSSDVPCDATLTEKSFETDMNLNFQNLSVMGLRILLLKVAGFNLLMTLRLWSSRAKRSGSGATNFSLLKQAGDVEENPGPMGPGLLHWMALCLLGTGHGDAMVIQNPRYQVTQFGKPVTLSCSQTLNHNVMYWYQQKSSQAPKLLFHYYDKDFNNEADTPDNFQSRRPNTSFCFLDIRSPGLGDAAMYLCATSRGQGGQPQHFGDGTRLSILEDLRNVTPPKVSLFEPSKAEIANKQKATLVCLARGFFPDHVELSWWVNGKEVHSGVSTDPQAYKESNYSYCLSSRLRVSATFWHNPRNHFRCQVQFHGLSEEDKWPEGSPKPVTQNISAEAWGRACGITSSYQQGVLSATILYEILLGKATLYAVLVSTLVVMAMVKRKNS | 37258 | 47273 | 1122 | 932 | 802 | 1005 | proliferate in response to co-culture with SSX2+/HLA-A2+ target cells | 2827 | 553 | upregulated | proliferate in response to co-culture with COS-A2-SSX-2 cells | 327 | 554 | 2752 | 3328 | 270 | 142 | 10401 | 10630 | 2715 | interferon-γ levels ([13]; Table 6 donor): 3460 pg/mL; interferon-γ levels ([14]; Table 5 donor): 46999 pg/mL; interferon-γ levels ([14]; Table 6 donor): 57693 pg/mL; interferon-γ levels ([15]; Table 5 donor): 51092 pg/mL; interferon-γ levels ([15]; Table 6 donor): 40047 pg/mL; interferon-γ levels ([16]; Table 5 donor): 17437 pg/mL; interferon-γ levels ([16]; Table 6 donor): 13555 pg/mL; interferon-γ levels ([17]; Table 5 donor): 2221 pg/mL; interferon-γ levels ([17]; Table 6 donor): 9857 pg/mL; interferon-γ levels ([18]; Table 5 donor): 30 pg/mL; interferon-γ levels ([18]; Table 6 donor): 38 pg/mL; interferon-γ levels ([19]; Table 5 donor): 56893 pg/mL; interferon-γ levels ([19]; Table 6 donor): 164314 pg/mL; interferon-γ levels ([20]; Table 5 donor): 19027 pg/mL; interferon-γ levels ([20]; Table 6 donor): 20027 pg/mL; lytic activity (percent lysis) [21]: specific lytic activity against SSX-2^+/HLA-A2^+ target cells |
